Measured values: US20040253646A1, “Pre-mrna splicing screening assay” (priority 2001, published 2004)
“Also recorded” adds a separate entry of the source.

What was measured:
PLRG1 [1] = target: T1, PLRG1 (Homo sapiens, UniProt O43660); assay: GST pull-down protein binding assay, CDC5L mutants with GST-PLRG1; details: about 0.2 nmole GST-PLRG1, FIG. 4
T1 construct: using full-length GST-PLRG1 in pull-down experiments with each of the respective CDC5L truncation mutants; made in house; host or cells: E. coli BL21(DE3), vector pGEX-4T1
T1 sequence (O43660 1-514): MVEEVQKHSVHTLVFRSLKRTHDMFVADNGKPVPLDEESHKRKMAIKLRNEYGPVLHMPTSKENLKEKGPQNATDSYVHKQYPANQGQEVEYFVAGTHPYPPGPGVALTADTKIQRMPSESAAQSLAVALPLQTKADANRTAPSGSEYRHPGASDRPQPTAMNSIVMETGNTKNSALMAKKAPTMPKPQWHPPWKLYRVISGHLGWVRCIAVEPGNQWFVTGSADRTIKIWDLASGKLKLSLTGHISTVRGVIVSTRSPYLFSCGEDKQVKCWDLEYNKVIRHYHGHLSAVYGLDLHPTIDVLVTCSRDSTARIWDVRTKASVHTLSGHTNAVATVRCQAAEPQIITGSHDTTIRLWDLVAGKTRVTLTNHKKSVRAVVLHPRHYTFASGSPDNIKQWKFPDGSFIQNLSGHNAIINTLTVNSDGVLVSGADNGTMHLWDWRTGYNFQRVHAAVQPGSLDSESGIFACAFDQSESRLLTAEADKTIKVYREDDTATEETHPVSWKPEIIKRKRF
From the text: (§1) The in vitro transcription and translation experiments were done with the T7 or SP6 RNA polymerase transcription/translation systems that used rabbit reticulocyte lysate (TNT systems, Promega) and L-[^35S] methionine (Amersham, AG1094) to produce [^35S] labelled proteins according to the manufacturer's recommendations. Aliquots of these reactions were used for protein-protein interaction assays as described below.
(§2) About 0.2 nmole of the appropriate GST-fusion recombinant protein was mixed with an equimolar amount of hexahistidine tagged bacterially expressed protein or 8-10 μl of the in vitro translation reaction above and incubated in binding buffer (250 mM NaCl, 50 mM HEPES pH 7:9, 2% BSA) at room temperature for 15 minutes. The binding reaction was then added to 25 μl of glutathione sepharose beads or antibody bound protein-G sepharose and mixed at 4° C. for 1-2 hrs. The beads were washed 3-4 times in 1 ml of PBS/0.1% Triton X-100 and resuspended in 25 μl 2×SDS PAGE loading dye before heating at 70° C. for 10 minutes or 95° C. for 5 minutes. Bound proteins were separated on a 10% or 12% SDS PAGE gel after which the gel was fixed in 50% methanol/10% acetic acid for 30 minutes. The fixed gel was then soaked in a fluorographic reagent (Amplify, Amersham) for 30 minutes before drying. Protein bands were detected by autoradiography at −80° C. after 4-16 hrs. For antibody probing, the gels containing proteins from the antibody beads were treated as described above in the SDS-PAGE and Western blotting section.
(§3) Point mutations generating stop codons were inserted into the cDNAs at approximately 100 amino acids intervals by PCR using the QuikChange site directed mutagenesis kit (Stratagene) according to the manufacturer's instructions. The cDNAs were sequenced to confirm the presence of the appropriate mutations. Regions of the cDNAs involved in binding and overlapping regions were subcloned into the vectors pGEX-4T1 (Amersham-Pharmacia) or pET-30a (Novagen) for use in E. coli expression and protein-protein interaction assays.

PLRG1 [2] = target: T2, PLRG1 (Homo sapiens, UniProt O43660); assay: as above; details: in vitro translated (FIG. 6A) or bacterially expressed His-tagged (FIG. 6B, 6C) proteins
T2 construct: using full-length GST-PLRG1 in pull-down experiments with each of the respective CDC5L truncation mutants; made in house; host or cells: E. coli BL21(DE3), vector pGEX-4T1
T2 sequence (O43660 257-396 limits assumed): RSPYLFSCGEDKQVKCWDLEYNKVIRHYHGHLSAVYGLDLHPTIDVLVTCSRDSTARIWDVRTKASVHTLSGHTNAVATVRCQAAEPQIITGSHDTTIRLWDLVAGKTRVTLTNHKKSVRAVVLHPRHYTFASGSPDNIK
From the text: as §1, §2, §3

- pull-down of in vitro translated CDC5L mutants by full-length GST-PLRG1 (PLRG1 [1]): pulled down less efficiently
B1: ΔCDC5Lg: CDC5L carboxyl terminal amino acids 706-800, mutant protein from region g (protein, UniProt Q99459 706-800, looked up, fragment)
chain: EAKRAAKMEKKMKILLGGYQSRAMGLMKQLNDLWDQIEQAHLELRTFEELKKHEDSAIPRRLECLKEDVQRQQEREKELQHRYADLLLEKETLKS
modifications: His6 tag
notes: CDC5L carboxyl terminal amino acids 706-800, mutant protein from region g
- pull-down of CDC5L mutants by GST-ΔPLRG1f (amino acids 257-396) (PLRG1 [2]): will interact; also recorded: will pull-down
